Source: publication PMC8551079 (iScience, 2021)

Molecular target: T1, glutathione S-transferase (GST)-fused ABI5 (Arabidopsis thaliana, UniProt Q9SJN0 1-442)
T1 sequence (looked up): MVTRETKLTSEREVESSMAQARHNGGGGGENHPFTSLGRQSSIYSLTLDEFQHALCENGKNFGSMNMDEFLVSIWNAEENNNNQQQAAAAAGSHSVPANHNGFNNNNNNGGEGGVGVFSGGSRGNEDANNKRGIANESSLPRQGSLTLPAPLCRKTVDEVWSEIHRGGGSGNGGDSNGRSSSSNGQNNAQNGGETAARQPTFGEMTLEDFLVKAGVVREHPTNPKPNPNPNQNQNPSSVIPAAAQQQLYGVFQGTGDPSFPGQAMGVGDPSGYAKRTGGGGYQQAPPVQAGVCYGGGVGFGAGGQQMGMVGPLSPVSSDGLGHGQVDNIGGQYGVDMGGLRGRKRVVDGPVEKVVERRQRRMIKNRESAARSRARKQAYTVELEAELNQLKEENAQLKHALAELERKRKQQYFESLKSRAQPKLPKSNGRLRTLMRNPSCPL
Assay: pull-down

B1: MYB70-His (natural protein)
chain: not shown
binding result: binds
